{"source": "patent US20110189095A1", "about": "“CRKL TARGETING PEPTIDES” (The Board of Regents, of the University of Texas System, priority 2008, published 2011)", "key": {"CRKL [1]": {"target": "T1, CRKL (Homo sapiens, UniProt P46109)", "T1 sequence (P46109 whole entry)": "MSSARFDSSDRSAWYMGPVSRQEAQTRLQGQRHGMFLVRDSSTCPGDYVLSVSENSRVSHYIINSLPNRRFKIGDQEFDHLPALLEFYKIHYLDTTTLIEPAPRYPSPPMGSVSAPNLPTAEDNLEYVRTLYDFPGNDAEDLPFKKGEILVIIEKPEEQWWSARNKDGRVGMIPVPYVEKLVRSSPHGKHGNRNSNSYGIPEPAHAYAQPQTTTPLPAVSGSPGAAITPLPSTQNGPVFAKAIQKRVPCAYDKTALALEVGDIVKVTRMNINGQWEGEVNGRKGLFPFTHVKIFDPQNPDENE", "experiment": "Phage binding assay on purified recombinant protein", "set-up": "The open reading frame of full-length CRKL cDNA (Invitrogen) was PCR-amplified and cloned in a pET28a (Novagen) expression vector; His-tag; made in house; host or cells: E. coli BL21", "description": "Phage binding assays on purified proteins were carried out as described (Giordano et al. 2001). Recombinant proteins were coated on microtiter wells as previous described (Cardo-Vila et al., 2003; Smith and Scott, 1993). Briefly, proteins were immobilized on microtiter wells overnight at 4° C. 50 μl of 1 μg/ml in PBS. Wells were washed twice with PBS, blocked with PBS containing 3% BSA for 2 hours at room temperature, and incubated with 10^9 T.U. wild-type tumor-homing phage ([…]; SEQ ID NO:1), scrambled phage ([…] (SEQ ID NO:26), […] (SEQ ID NO:27), […] (SEQ ID NO:29), […] (SEQ ID NO:30)), mutant phage ([…] (SEQ ID NO:25), […] (SEQ ID NO:28)), PSI-derived cyclic phage (CNSTFLQEGMPTSAC; SEQ ID NO:23) or fd-tet phage in 50 μl of PBS containing 1.5% BSA. After 1 hour at room temperature, wells were washed ten times with PBS and phage were recovered by bacterial infection. ELISA with polyclonal anti-CKRL confirmed the presence and concentration of the CKRL recombinant proteins on the wells. […] After 3 hours, binding of CKRL to integrins was detected by using an anti-CKRL antibody followed by an HRP-conjugated anti-rabbit IgG. […]"}, "CRKL [2]": {"target": "T1, CRKL", "experiment": "Binding assays with recombinant gst-PSI fusion proteins", "excerpt": "FIG. 3A-D: Receptor binding by peptides. FIG. 3A, the recombinant His-tag CRKL (rCRKL), rCRKL-SH3 (N) domain, and rCRKL-SH3 (C) domain bind to the tumor-homing peptide-[…] (SEQ ID NO:1). FIG. 3B, the recombinant His-tag rCRKL, rCRKL-SH3 (N) domain, and rCRKL-SH3 (C) domain bind to the synthetic peptide NSTFLQEGMPTSA (SEQ ID NO:23) corresponding to a region in the PSI domain. FIG. 3C, recombinant gst fusion protein of the entire PSI domain (residues 22-82. SEQ ID NO: 71-[…]), gst-PSI linear (residues 48-62, SEQ ID NO: 72-TNSTFLQEGMPTSAR), gst-PSI cyclic (residues […], SEQ ID NO: 72-CTNSTFLQEGMPTSARC) were generated for binding assays. Both the linear and the cyclic PSI-derived regions bind to CRKL. FIG. 3D, the binding activity of the tumor-homing peptide to rCRKL-SH3 (C) domain is inhibited by the tumor-homing ([…]; SEQ ID NO:1) peptide, by the PSI-derived (NSTFLQEGMPTSA; SEQ ID NO:23) peptide or tumor-homing phage displaying SEQ ID NO:1. Bars represent mean±standard deviation from triplicate wells.\nCRKL mutants in the SH3 domain (carboxyl terminal) were generated by PCR mutagenesis. Primer sets were designed to remove 60 bp (Δ1 and Δ2) and 54 bp (Δ3) and maintain the reading frame. For the PSI domain constructs, cyclic and linear peptide forms of the PSI domain were produced. […] Protein-protein interactions were detected by using an antibody against gst."}, "rCRKL-SH3 (N) domain": {"target": "T2, rCRKL-SH3 (N) domain (Homo sapiens, UniProt P46109)", "T2 construct": "cDNAs corresponding to each of the SH domains were PCR-amplified and cloned into the Sac I and Xho I restriction sites; His-tag; made in house; host or cells: E. coli BL21", "T2 sequence (P46109 123-183 limits assumed)": "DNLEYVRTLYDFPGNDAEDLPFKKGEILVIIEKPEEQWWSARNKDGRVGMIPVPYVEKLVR", "experiment": "Peptide binding assay with recombinant His-tag proteins (ELISA)", "details": "peptide coated on microtiter plates", "description": "(§1) Synthetic tumor-homing peptide ([…]; SEQ ID NO:1) or PSI-derived peptide (NSTFLQEGMPTSA; SEQ ID NO:23) were coated on microtiter plates followed by blocking, and washing. The following recombinant His-tag proteins were added to the coated plates: rCRKL, rCRKL-SH2 domain, rCRKL-SH3 (N) domain, and rCRKL-SH3 (C) domain. An unrelated control protein (α2-Heremans-Schmid glycoprotein; AHSG) served as a negative control. The mixtures were incubated, washed, and labeled with the appropriate antibodies. Secondary antibodies conjugated to horse-radish peroxidase (HRP) were added followed by adding TMB substrate (Calbiochem), and analyzed by an automated ELISA reader (Bio-Tek). To determine the inhibitory activity of the tumor-homing peptide, the PSI-derived peptide, or the phage clone displaying the corresponding tumor-homing peptide were incubated with the rCRKL-SH3 (C) domain. Unrelated cyclic peptide sequences and insertless phage (fd-tet) served as negative controls. The admixtures were incubated and added to wells coated with the tumor-homing peptide. After incubation, the wells were washed, labeled with the appropriate antibodies, and processed as above."}, "rCRKL": {"target": "T3, rCRKL (Homo sapiens, UniProt P46109)", "T3 construct": "The open reading frame of full-length CRKL cDNA (Invitrogen) was PCR-amplified and cloned in a pET28a (Novagen) expression vector; His-tag; made in house; host or cells: E. coli BL21", "T3 sequence (P46109 whole entry)": "as the sequence (P46109 whole entry) above", "experiment": "Peptide binding assay with recombinant His-tag proteins (ELISA)", "details": "peptide coated on microtiter plates", "description": "as §1"}, "rCRKL-SH2 domain": {"target": "T4, rCRKL-SH2 domain (Homo sapiens, UniProt P46109)", "T4 construct": "cDNAs corresponding to each of the SH domains were PCR-amplified and cloned into the Sac I and Xho I restriction sites; His-tag; made in house; host or cells: E. coli BL21", "T4 sequence (P46109 14-102 limits assumed)": "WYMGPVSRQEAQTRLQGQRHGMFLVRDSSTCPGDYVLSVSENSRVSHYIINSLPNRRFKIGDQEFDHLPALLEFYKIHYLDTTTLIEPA", "experiment": "Peptide binding assay with recombinant His-tag proteins (ELISA)", "details": "peptide coated on microtiter plates", "description": "as §1"}, "rCRKL-SH3 (C) domain [3]": {"target": "T5, rCRKL-SH3 (C) domain (Homo sapiens, UniProt P46109)", "T5 construct": "cDNAs corresponding to each of the SH domains were PCR-amplified and cloned into the Sac I and Xho I restriction sites; His-tag; made in house; host or cells: E. coli BL21", "T5 sequence (P46109 235-296 limits assumed)": "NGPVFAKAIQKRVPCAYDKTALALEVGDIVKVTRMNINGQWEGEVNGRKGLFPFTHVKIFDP", "experiment": "Peptide binding assay with recombinant His-tag proteins (ELISA)", "description": "as §1"}, "DU145 cells": {"test_system": "DU145 cells", "experiment": "Peptide internalization assay (WST-1 cell viability, annexin-V staining)", "type": "cell-based, human", "details": "DU145 cells; measured by cell viability and annexin-V", "description": "The internalization capability of the tumor-homing peptide fused through a glycinylglycine bridge to a pro-apoptotic sequence was tested as described Arap et al., 2004; Ellerby et al., 1999; Kolonin et al., 2004; Zurita et al., 2004). The conjugated tumor-homing peptide, […] (SEQ ID NO:67)-D(KLAKLAK)2 or the untargeted control peptide D(KLAKLAK)2 were synthesized and increasing equimolar peptide concentrations were added to the DU145 cells. Cell viability was assayed by the WST-1 reagent (Roche) and annexin-V staining for apoptosis (Zurita et al., 2004; Cardo-Vila et al., 2003). For tumor-homing phage localization studies, cells were incubated with 10^9 T.U. tumor-homing ([…]; SEQ ID NO:1) or a negative control (fd-tet) phage for 6 and 24 hours. Wells were washed with 20 mM glycine to remove non-specific cell surface bound phage and then fixed with 4% paraformaldehyde. The non-permeabilized cells were incubated with rabbit anti-fd bacteriophage antibody (Sigma) for 2 hours at room temperature followed by 1 hour incubation with Cy3-labeled anti-rabbit IgG antibody (Jackson ImmunoResearch). Cells were again fixed with 4% paraformaldehyde and mounted in the presence of DAPI (Vector Laboratories) and images were acquired with an Olympus fluorescence microscope."}, "rCRKL-SH3 (C) domain [4]": {"target": "T5, rCRKL-SH3 (C) domain", "experiment": "Inhibition of rCRKL-SH3 (C) domain binding to coated tumor-homing peptide", "details": "inhibitor pre-incubated with rCRKL-SH3 (C)", "description": "as §1"}, "[5]": {"test_system": "human prostate cancer xenografts (DU145-derived)", "experiment": "Therapy in tumor-bearing mice (tumor volume)", "type": "in vivo, nude mice", "details": "equimolar amounts, systemically administered, vs untreated or vehicle", "excerpt": "Finally, a pilot pre-clinical trial that included four cohorts of size-matched tumor-bearing mice was designed and conducted (FIG. 11). Animals received the following reagents: (i) the synthetic PSI domain-mimic peptide, (ii) the synthetic PSI domain-mimic peptide linked to a pro-apoptotic peptidomimetic (Arap et al., 2004; Ellerby et al., 1999; Kolonin et al., 2004; Zurita et al., 2004) in order to induce targeted apoptosis upon receptor-mediated internalization, (iii) the synthetic pro-apoptotic peptidomimetic alone, or (iv) vehicle alone. All peptides or peptidomimetics were administered at equimolar concentrations.\nDU145 tumor-bearing mice were size-matched and divided into individual cohorts (n=4 mice per group). The tumor-homing peptide […] (SEQ ID NO:1) was synthesized fused with the proapoptotic motif D(KLAKLAK)2. Unconjugated peptide […] (SEQ ID NO:1) or D(KLAKLAK)2 served as controls. The synthetic peptides were systemically administered and tumor volumes measured as described (Arap et al., 1998; Arap et al., 2004)."}}}
{"sequence": "CNSTFLQEGMPTSAC [PSI-derived phage]", "values": [{"measurement": "phage binding to recombinant CRKL", "setting": "CRKL [1]", "result": "bind"}]}
{"sequence": "CTNSTFLQEGMPTSARC [gst-PSI cyclic]", "values": [{"measurement": "binding to CRKL", "setting": "CRKL [2]", "result": "bind"}]}
{"sequence": "TNSTFLQEGMPTSAR (left off: a dimerising Fc or GST; large carriers; small tags and cut ends) [gst-PSI linear, recombinant gst fusion of linear PSI region, residues 48-62]", "values": [{"measurement": "binding to CRKL", "setting": "CRKL [2]", "result": "bind"}]}
{"sequence": "YRCTLNSPFFWEDMTHECHA (listed as Homo sapiens) [Peptide 6]", "values": [{"measurement": "binding to rCRKL-SH3 (N) domain", "setting": "rCRKL-SH3 (N) domain", "result": "bind"}, {"measurement": "binding to rCRKL", "setting": "rCRKL", "result": "bound"}, {"measurement": "binding through the SH2 domain", "setting": "rCRKL-SH2 domain", "result": "little to no binding"}, {"measurement": "binding attributes to the CRKL-SH3 (C) domain (site-directed mutagenesis)", "setting": "rCRKL-SH3 (C) domain [3]", "result": "dependent on the Pro residue and on the cyclic Cys-Cys disulfide bridge"}, {"measurement": "binding to rCRKL-SH3 (C) domain", "setting": "rCRKL-SH3 (C) domain [3]; peptide coated on microtiter plates", "result": "bind"}, {"measurement": "internalization", "setting": "DU145 cells", "result": "mediates ligand-directed internalization"}, {"measurement": "inhibition of binding of the tumor-homing peptide to rCRKL-SH3 (C) domain", "setting": "rCRKL-SH3 (C) domain [4]", "result": "inhibited"}, {"measurement": "tumor growth / tumor volume", "setting": "[5]", "result": "no differences in tumor volume"}, {"measurement": "tumor growth / tumor volume", "setting": "[5]; listed as PSI domain-mimic peptide", "result": "no detectable effect"}]}
